Experimental data as given in patent US6369237.

Molecular target: T1, MutY adenine DNA glycosylase (UniProt P17802)
T1 sequence: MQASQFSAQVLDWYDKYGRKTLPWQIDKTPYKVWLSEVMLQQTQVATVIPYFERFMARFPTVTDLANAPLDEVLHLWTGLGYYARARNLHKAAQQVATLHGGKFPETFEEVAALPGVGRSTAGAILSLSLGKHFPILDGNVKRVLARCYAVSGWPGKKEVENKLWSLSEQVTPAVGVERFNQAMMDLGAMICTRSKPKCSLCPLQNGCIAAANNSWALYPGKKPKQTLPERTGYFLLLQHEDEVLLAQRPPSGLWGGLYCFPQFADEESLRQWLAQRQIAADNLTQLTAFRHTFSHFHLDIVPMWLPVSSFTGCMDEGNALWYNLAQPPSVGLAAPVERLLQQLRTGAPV
Test: EMSA
Conditions: pyrrolidine residue lacking a base (inhibitor 1); at least 20 times higher than 2a

Substance pyrrolidine (inhibitor 1) abasic duplex has a Kd of 0.065 nM.
